The supplement of paper PMC9170038

Tested on: MS2 coat protein
Assay: apparent KD of MS2 coat protein; higher = weaker reporter binding
Conditions: Eterna round: R107
Outline: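 Designed RNA switches were transcribed on-chip from Illumina sequencing clusters and titrated with SNAP-549-labelled MS2 coat protein in twofold steps from 0.7 or 1.5 nM up to 3 µM. Each step lasted 0.8–1.5 h at first and 10–20 min by the end, in 100 mM Tris-HCl pH 7.5, 80 mM KCl and 4 mM MgCl2, without or with constant ligand. Apparent KD is the median, for each design, of fits to normalised cluster binding curves.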

[1] = input ligand: theophylline 20 uM
[2] = input ligand: theophylline 2 mM
[3] = input ligand: tryptophan 2.4 mM

| Sequence | apparent KD of MS2 coat protein (input ligand: arginine 13.2 mM) [nM] | apparent KD of MS2 coat protein (input ligand: none) [nM] | apparent KD of MS2 coat protein [1] [nM] | apparent KD of MS2 coat protein [2] [nM] | apparent KD of MS2 coat protein [3] [nM] |
| --- | --- | --- | --- | --- | --- |
| GGACCAUGGAGCGAUACCAGCUUGAGUGUGCUGGCCAGGCACAUGAGGAUCACCCAUGUAAGCCCUUGGCAGCGCUCCAUGGUCC [#1 Exclusion - Theophylline B Attempt #26 (HarryS)] | 7.45 | 8.39 | 13.3 | 13.5 | 10.6 |
| GGACGAAGUUUCUUGUCCGGUCGCUGAGAAGGAGCGCGGUAAACCGCAGGUAGGUCGCUCAGAAAUACAUGAGGAUCACCCAUGU [Orsosous] | 17.1 | 21.1 | 27.2 | 21.4 | 21.5 |
| GGACUAACCAGAAGGAGCGACACGCAGAAACUGCAAUUUCCUCCACACGAGGAUCACCCGUGUCAGGUAGGUCGCUGGUUAGUCG | 28.3 | 25.4 | 37.3 | 31 | 26.7 |
| GGACUAACCAGAAGGAGCGACACGCAGAAACUGCAAUUUCCUCUACACGAGGAUCACCCGUGUCAGGUAGGUCGCUGGUUAGUCG | 50 | 53.1 | 74.8 | 65 | 54 |
| GGACUAACCAGAAGGAGCGACACGCAGAAACUGCUAAAUCCUCCGCACGAGGAUCACCCGUGUCAGGUAGGUCGCUGGUUAGUCG [ArgBX 28] | 36.2 | 45.5 | 66.7 | 47.5 | 49.9 |
| GGACUAACCAGAAGGAGCGAUACGCAGAAACUGCAAUUUCCUCUACACGAGGAUCACCCGUGUCAGGUAGGUCGCUGGUUAGUCG | 25.2 | 26.9 | 35.2 | 29.7 | 26.7 |
| GGACUAACCAGAAGGAGCGGCACGCAGAAACUGCAAUUUCCUCCGCACGAGGAUCACCCGUGUCAGGUAGGUCGCUGGUUAGUCG | 21.8 | 20.4 | 27.5 | 24.5 | 25.4 |
| GGACUAACCAGAAGGAGCGGCACGCAGAAACUGCUAAUUCCUCCGCACGAGGAUCACCCGUGUCAGGUAGGUCGCUGGUUAGUCG [ArgBX 28] | 14.9 | 11.3 | 13.8 | 14.8 | 13 |
| GGACUAACUCGAAGGAGCGACACGCAGAAACUGCAAUUUCCUCCACACGAGGAUCACCCGUGUCAGGUAGGUCGCGAGUUAGUCG [ArgBX 29] | 20.8 | 21.8 | 26.3 | 28 | 19.8 |
| GGAUAGGACACGGCCGCCACUACCUAGGAUACUAGCAACAUUUGGGUACAAGAGGAUCACCCUUGUAGGACCGGGUGUCCUAUCG | 23.1 | 22.1 | 28 | 25.5 | 59 |
| GGAUAGGACACGGCCGCCACUAUCUAGGAUACUAGCAACAUUUGGGUAUAUGAGGAUCACCCAUAUAGGACCGGGUGUCCUAUCG | 138 | 214 | 330 | 303 | 471 |
| GGAUAGGACAGAAGGAGCGACAUGGCGACGAAAGUCGGACCUUCACAUGAGGAUCACCCAUGUCAGGUAGGUCGCUGUCCUAUCG [ArgXB 6 #MS2Gate #StaticStem] | 38 | 48.4 | 55.2 | 52.4 | 46.1 |
| GGAUCCAUCCGAAGGAGCGUCGGAAAUGGGUAAACAUGAGGAUCACCCAUGUAAAGGGAACGGCAGGUAGGUCGCGGAUGGAUCC [#25 Same State - Arginine B] | 132 | 99.1 | 167 | 157 | 195 |
| GGAUGAAACUGAAGGAGCGAGAACACAAGAAUGGGUCAAACAUGAGGAUCACCCAUGUAAUCUCAGGUAGGUCGCAGUAUCCCUU [Exclusion Arginine B GF 10] | 44 | 34.3 | 50 | 53.3 | 36.6 |
| GGCCCUGCGGGCGCCCGCAGGGCCGCGGAUACCAGCGAGGUCCAUCGCCCUUGGCAGCCGAACAUGAGGAUCACCCAUGUCGGUG [Same State - Theophylline A Attempt #8 (HarryS)] | 10.6 | 12.9 | 20.4 | 89.6 | 12.9 |
| GGCCGAUGGUGCGAUACCAGCUUGAGUGUACUGGCCAGGUACAUGAGGAUCACCCAUGUAAGCCCUUGGCAGCGCGUCAGAGGCC [#1 Exclusion - Theophylline B Attempt #21 (HarryS)] | – | – | 15.5 | – | 11.3 |
| GGCGCGCGCCAACAUGAGGAUCACCCAUGUCGAGGACCGGUACGGCCGCCACUCGAACGAGUGAAGCGCGCGCGCGGGCGACCGC [Saa] | 36.6 | 39.7 | 42.5 | 47.1 | 77.1 |
| GGCGUCGGGCGAAGGAGCGUGAAGACAUGAGGAUCACCCAUGUAGAGGCCCGGACAGGGUUCGCAGGUAGGUCGCGCGCGGUGCC [#1 Same State - Arginine B Attempt #7 (HarryS)] | 17.5 | 13.7 | 23.2 | 19.5 | 16.9 |
| GGCUGCGAUGGCGGAAAUUAUUUACAUAGGCGAGGACCGGUACGGCCGCCACUCGAACGUACAUGAGGAUCACCCAUGUGAUAAU [theeternabot_sameState_MS2_Trp_A_1] | 29 | – | 59.9 | 70.8 | – |

| Sequence | apparent KD of MS2 coat protein (input ligand: arginine 13.2 mM) [nM] | apparent KD of MS2 coat protein (input ligand: none) [nM] | apparent KD of MS2 coat protein [1] [nM] | apparent KD of MS2 coat protein [2] [nM] | apparent KD of MS2 coat protein [3] [nM] |
| --- | --- | --- | --- | --- | --- |
| GGGACUAGAUCGGCCGCCACUGAUGGGACAUGAGGAUCACCCAUGUACGAAGUGAUCCAAUAAAUCAGGACCGGGAUCACUUGUA [Tryp B Ex t6] | 64.3 | – | 137 | 173 | – |
| GGGCCCGUAAGCAGGCCCACAGCGGGUGAUACCAGCAAUAAAACUUGCCCUUGGCAGCACACAGCUACAUGAGGAUCACCCAUGU [Mausdi] | 24.3 | – | 59.3 | – | 88.6 |
| GGGCCUGUAAGCAGACCCACAGCGGGUGAUACCAGCAAUAAAACUUGCCCUUGGCAGCACACAGCUACAUGAGGAUCACCCAUGU [Rausis] | 36.4 | – | 92.9 | – | 82.4 |
| GGGCGAGUGGCGCGGCGUGCUCCGCUCCGUCGAGGACCGGUACGGCCGCCACUCGACAUGAGGAUCACCCAUGUGCGAGCUCGCG [#1 Exclusion - Tryptophan A Attempt #12 (HarryS)] | 24.7 | 52.5 | 71.7 | 101 | 39.8 |
| GGGUACAUCGCGGCCGCCACUCAUGUAAAUACCUGAGGAUCACCCUGGUCGAUGGAGACAUCGAAGAGGACCGGGUGAUGUACCG | 91.2 | 252 | 371 | 528 | 44.6 |
| GGGUGGUAGGCGGCCGCCACUGAUUUUCAUAUAUAUAUAACAUGAGGAUCACCCAUGUAGAUAUGCAGGACCGGGCCUGUUGUUU [aaaL] | 26.6 | – | 39.6 | 37.7 | – |
| GGUCUCUGGAGCGAUACCAGCUUAAUUGUACUGGCCAGGUACAUGAGGAUCACCCAUGUAAGCCCUUGGCAGCGCUCCAGAGACC [#1 Exclusion - Theophylline B Attempt #12 (HarryS)] | 10.6 | 12.1 | 13.6 | 24 | 11.6 |
| GGUGAUCCGUGCUGCCGGAUCAUCGGUGAUACCAGCAUCGAAAGAUGCCCUUGGCAGCACCAACAUGAGGAUCACCCAUGUAAUA [(M)'-(T)'-(M)''-(T1)-(T2)-(M1)-(M2)_Design5] | 46 | – | 231 | – | 163 |
| GGUGGAGGCGUGGGACUUGUCUGAACGGAUACCAGCCACAUCACGGGCCCUUGGCAGCUGUACAUGAGGAUCACCCAUGUCGGUC [Atestevete] | 33.6 | – | 45.2 | – | 34.8 |
| GGUGGCGGGACUGAUACCAGCCACCACCGAUAGACCACAUGAGGAUCACCCAUGUUGGGUGGCCCUUGGCAGCAGUCUUGCUGCC [#1 Same State - Theophylline B Attempt #12 (HarryS)] | 24.2 | 206 | 432 | 1880 | 907 |
| GGUGGCGUGACGGAUACCAGCCACCGCGGCAACGCAACAUGAGGAUCACCCAUGUUGGGUGGCCCUUGGCAGCUGUCGUGCGGCG [#1 Same State - Theophylline B Attempt #23 (HarryS)] | 47.4 | 86.2 | 79.3 | 27.5 | 78.1 |
| GGUUACUCUACGGCCGCCACUGAAAAGUAAAUAUUAAUGUACAUGACAUGAGGAUCACCCAUGUACAGGACCGGGUAGUGUAACC [Tryptophan B 13] | 64.8 | – | 102 | 108 | – |
| GGUUGGUGUAGAGAUAUAUUGAUUACUGAAGGAGCGGGAAUAAACCCAGGUAGGUCGCAGAGAUCCACAUGAGGAUCACCCAUGU [!0.O] | 32 | 36.9 | 54.6 | 53 | 35.3 |
| GUAAGAGUAGGAAGGAGCGCUUUACAUGAGGAUCACCCAUGUGUGCCCUCAAUUUCGGUAAAGCAGGUAGGUCGCCUAAACUUGC [Tiqurabi] | 31.2 | 34.5 | 175 | 67.5 | 57 |
| GUACGAGUUGACUGUGAGACUGGCGUGGAAGGAGCGCACGGAGGUGCAGGUAGGUCGCCACAUGAGGAUCACCCAUGUCGGGCCG [Qutigeveat] | 19.3 | 26.4 | 31.6 | 40.1 | 26.7 |
| GUAGCUAUCGCGGCCGCCACUAAACCGGAAACGGAACAGGAGGAUCACCCUUGUGGCGAAAGCCAUAGGACCGGGCGAUAGCUAC [TryBS - Double Magnet system] | 224 | – | 457 | 735 | 46.3 |
| GUCAGUUCUCAUGAUACCAGACCUGCCUCGGACAUGAGGAUCACCCAUGUACCCAAGCGAGUCCCUUGGCAGCAUGUGGCUUAAA [Ririatre] | 24.7 | – | 19.4 | – | 20.7 |
| GUGACUUACGGGCGCCAUUUGUAAUAGGAAGGAGCGGCGAAAUAGCCAGGUAGGUCGCCUAUACAUGAGGAUCACCCAUGUCACC [Esatbileor] | 46.9 | 91.9 | 105 | 105 | 77.8 |
| GUGUCCUAGUCGGCCGCCACUGGUACGAAUACCUUCACCCGUGUGCACAUGAGGAUCACCCAUGUCAGGACCGGGACUAGGGUGU [SSTryp B #24] | 9.87 | 10 | 11.4 | 14.1 | 9.72 |
